Measured values: the supplement of paper PMC12042874
± gives the uncertainty stated by the source.

Assay: amyloid nucleation score (Sup35N fusion, yeast selection) (log enrichment); library NNK2; higher = more nucleation; inactive = no reads after selection
Method in brief: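 Nucleation score: DiMSum log enrichment of output over input reads, centred on the mode score of non-aggregating sequences. Only sequences with at least 100 input reads were kept. Reads came from Illumina sequencing of plasmid inserts before and after 7 days of growth at 30°C without adenine and uracil, in psi-negative yeast expressing Sup35N fused to peptides of 20 random codons after 24 hours of induction with 100 μM copper sulfate.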

| Substance | amyloid nucleation score |
| --- | --- |
| HLFPAGRSKTHAVFWFQGKG | 0.412 ± 0.37 |
| HLFTSCYYYMPLYLLSQRQY | 6.095 ± 0.044 |
| HLGRG | 0.126 ± 0.45 |
| HLLLEKDPSVWLWPKNRPGS | 3.35 ± 0.088 |
| HLLQRLSRGHMSALKTRLSW | 0.123 ± 1 |
| HLMRLHY | -1.78 ± 1.1 |
| HLNNCALGTDLILNALDVS | -0.426 ± 0.54 |
| HLPVSLFYRDS | 0.165 ± 0.41 |
| HLRQWDEYLETGCVN | 0.32 ± 0.33 |
| HLSCKVIENGLWTSFCFKQE | -1.04 ± 0.54 |
| HLSRFKWKHLFLNTVLTFAV | inactive |
| HLSRPGDAYTVMFT | 5.845 ± 0.036 |
| HLVIGFHYSCHGFFLRSFGH | inactive |
| HLVMCMARVGTTVNLMSHQT | 6.304 ± 0.057 |
| HMCHTVLHVSAGY | 0.246 ± 0.8 |
| HMDHARLEVLTVILLGVWGF | 5.11 ± 0.089 |
| HMLAPCFNM | -1.58 ± 0.78 |
| HMMHSWAFL | 3.81 ± 0.047 |
| HNLFNHIADNQGRGIEEKLT | -0.003 ± 1.1 |
| HNNFIFYFLLNLMICVHYGQ | 6.066 ± 0.036 |
| HNNGRSFYEKAMVDLGGAWL | 0.263 ± 0.64 |
| HNRISQRRLRLGLRGHWSRK | 0.691 ± 0.53 |
| HNSLMRMVWLNKHPK | -0.095 ± 0.8 |
| HNSMSWFR | 4.45 ± 0.058 |
| HNTAMGLELVPQKKNGVK | -0.06 ± 1 |
| HQMQACLVLG | 5.736 ± 0.053 |

| Substance | amyloid nucleation score |
| --- | --- |
| HQMRFPGSPMATVGSLRTCR | -0.528 ± 0.42 |
| HREKAGSPSCREI | -0.347 ± 1 |
| HRRVCLDAYTFTFLNMVLAW | -0.187 ± 0.65 |
| HRSYCGFICASVLSAGPVHR | -0.31 ± 1.1 |
| HRTLMIVKLCKRSGPFIL | -1.22 ± 0.42 |
| HRYISNISKYESKNWRVPVG | inactive |
| HSKTYLKGRLCNSLVWSYES | 0.712 ± 0.47 |
| HSLFSIAWFVAQYMNFGPDN | 3.1 ± 0.18 |
| HSLLLRWNGYSM | 4.92 ± 0.1 |
| HSLSFLMNSFMRYRSCLVVA | -0.119 ± 0.26 |
| HSLVCDN | -0.122 ± 0.39 |
| HSNALCLRFVLLPLSGIDIM | -0.295 ± 0.54 |
| HSSIIKSVAWAFNYDA | 0.159 ± 0.42 |
| HSSLFSYREQLYTSFCNIGM | 4.99 ± 0.067 |
| HSWAKMFMMLWGTMSRWDRA | -0.205 ± 0.62 |
| HTDCYLWLKLYSTLGILFVF | inactive |
| HTDLTSKFFYLNWCGLSLLR | 3.39 ± 0.072 |
| HTKMTIWNVVQC | -0.517 ± 0.63 |
| HTTDEISAS | 1.09 ± 0.36 |
| HVFLINLGLNCGQRYRYRSL | 6.044 ± 0.047 |
| HVKRD | 3.23 ± 0.16 |
| HVKTTYQLAFSNEQIM | -0.673 ± 0.48 |
| HVSKAVNLG | 0.52 ± 0.56 |
| HVVVDCISNCEFTCMWCSAY | 5.57 ± 0.06 |
| HVWLDLTYGNILQNRNCLTW | -0.335 ± 0.25 |
| HWFNSTRK | 0.187 ± 0.36 |

| Substance | amyloid nucleation score |
| --- | --- |
| HWLNLCP | -0.512 ± 0.48 |
| HWNMLSIENLAHVEIIRLGS | 7.085 ± 0.043 |
| HWTYTFRLNSSSSIYQNCSD | -0.71 ± 1 |
| HWYTAMVYIFKRQD | 0.974 ± 0.091 |
| HYAANVVRISYCGGHSRANF | 5.1 ± 0.077 |
| HYRDPFVKRLMKPVGRPATL | 0.192 ± 0.55 |
| HYVERWDDAHVFYGWKSDAV | inactive |
| HYVPDPDITL | -0.504 ± 0.32 |
| HYYIHSFNMYPVGSRLVPYE | -0.065 ± 0.42 |
| IAAYLLNSQYDSCNVDEKRH | -0.448 ± 0.39 |
| IAFGAGCLMWSR | 8.335 ± 0.063 |
| IAFRTSLYRD | -1.39 ± 0.48 |
| IALKFFH | 0.882 ± 0.3 |
| IASTVDFKSLIISGDPSRQF | -0.235 ± 0.46 |
| IAVATSGP | 0.84 ± 0.46 |
| IAVRDALVSVQLLPPENVGV | 1.13 ± 0.15 |
| IAVRMALGLENNKFFLIVHK | -1.44 ± 0.55 |
| IAYATPPSHGAC | 1.32 ± 0.15 |
| IAYNMRNGH | 0.949 ± 0.74 |
| ICCTSSANNSTPPQSCWTPK | 5.84 ± 0.076 |
| ICDDNVAVEWLRLTVCTFRL | 0.396 ± 0.28 |
| ICFWMACKIECCQQRTNFVS | -0.139 ± 0.26 |
| ICISWPINLCMV | 2.6 ± 0.22 |
| ICQCGYFWF | 2.8 ± 0.15 |
| ICSPVQSAPSRAEKND | -0.297 ± 0.45 |
| ICSTVSVIKT | -0.249 ± 0.64 |

| Substance | amyloid nucleation score |
| --- | --- |
| ICYFLKGAFRR | -0.493 ± 0.78 |
| ICYILILYTELVRSSLPFLG | inactive |
| IDCSFSFFVSPFRHPHSQED | 4.87 ± 0.092 |
| IDHNTSRC | 0.023 ± 0.76 |
| IDKICFKTDLIVFCRGLNPC | 1.9 ± 0.19 |
| IDKSG | 2.44 ± 0.14 |
| IDLSLNLGVRGVRQDETLFA | inactive |
| IDPADVGILSCCFLNDSKHE | 0.467 ± 0.46 |
| IDQLLGLDRSCCVNL | 0.387 ± 0.8 |
| IDSFDPGFRRHLDRSWIRRH | 0.105 ± 1.1 |
| IDVLTQLNSFRMNFYVSANI | -0.868 ± 1.1 |
| IDWIGPIYMHIAVMMVTVFQ | 4.924 ± 0.033 |
| IDYVFAAGDKWWVSVLL | -0.412 ± 1.1 |
| IEGYYGASRVRGMSMGLLWV | -0.17 ± 0.79 |
| IEKSMLVVLGINVRVSMGVG | 0.175 ± 0.24 |
| IFANVFANWHVGYLFTGSYY | 4.02 ± 0.081 |
| IFASSYVLSHYILGGHRSRK | 2.7 ± 0.1 |
| IFEHS | 0.346 ± 0.61 |
| IFFFWVLMRYW | -0.689 ± 0.55 |
| IFFLPVTCTWGTQWRL | 1.56 ± 0.15 |
| IFGSLLNMIYMV | 2.5 ± 0.21 |
| IFHCGLLRALRFSSHLYWVG | 0.505 ± 0.51 |
| IFHPSLTSRIPINTRHKVT | 4.4 ± 0.065 |
| IFIMQTHFTGRVCPSSVKLP | 4.99 ± 0.066 |
| IFNKYLVIFSIFI | 6.747 ± 0.037 |
| IFNVHMVRF | 9.317 ± 0.052 |

| Substance | amyloid nucleation score |
| --- | --- |
| IFNVSLGYLTLIMVHYEFLH | 5.733 ± 0.042 |
| IFNVSMSIVRSLVITCMWGL | 5.321 ± 0.043 |
| IFPFLDFRRFFLVYHVGPIS | 2.4 ± 0.24 |
| IFRISPSLGKRYGVRPERSW | 1.32 ± 0.38 |
| IFRSMFILTYPGSRYNDEYL | 4.13 ± 0.061 |
| IFRTFFIYKEFCGFLWCVGG | 1.02 ± 0.32 |
| IFTYCVWSFSWFW | 7.302 ± 0.053 |
| IFVLVS | 0.131 ± 0.38 |
| IFWYRCNINSGCEQVVYWGN | 5.311 ± 0.033 |
| IGCFTLR | 1.58 ± 0.088 |
| IGFDFRTA | 0.418 ± 0.62 |
| IGISWLATWPIEFTRLSRMV | 1.53 ± 0.52 |
| IGKSEYVEFRLTSSP | 0.354 ± 0.53 |
| IGLDRWLMSLRRYAMHK | -0.089 ± 0.18 |
| IGNAMHSLHSIHVRCRHSLE | 0.713 ± 0.74 |
| IGRCDELGRCRTRARACSGL | 7.78 ± 0.084 |
| IGRSMGRTFWR | 1.5 ± 0.18 |
| IGSRS | -1.25 ± 0.48 |
| IGYVEAWWVFLVGSDAVRAP | -0.018 ± 1.1 |
| IHICKQTCG | 0.812 ± 0.3 |
| IHLHYNVDNCTFELLK | -0.499 ± 0.26 |
| IHLLPLPYEVPSLLCTSRGP | 0.258 ± 0.4 |
| IHNDCKLPMFVIMFS | 6 ± 0.082 |
| IHSEFHKSY | inactive |
| IIGASCTNNSRMVLVWATVF | -0.76 ± 1 |
